The supplement of paper PMC7877785
± gives the uncertainty stated by the source.

Experiment: self-splicing fitness, log relative to wild type (ln ratio); higher = more splicing; Tetrahymena group I intron in knt gene, E. coli kanamycin selection, DiMSum; sequences stand for … in CUCUCU…GGAGGGAAAAGUUAUCAGGCAUGCACCUGGUAGCUAGUCUUUAAACCAAUAGAUUGCAUCGGUUUAAAAGGCAAGACCGUCAAAUUGCGGGAAAGGGGUCAACAGCCGUUCAGUACCAAGUCUCAGGGGAAACUUUGAGAUGGCCUUGCAAAGGGUAUGGUAAUAAGCUGACGGACAUGGUCCUAACCACGCAGCCAAGUCCUAAGUCAACAGAUCUUCUGUUGAUAUGGAUGCAGUUCACAGACUAAAUGUCGGUCGGGGAAGAUGUAUUCUUCUCAUAAGAUAUAGUCGGACCUCUCCUUAAUGGGAGCUAGCGGAUGAAGUGAUGCAACACUGGAGCCGCUGGGAACUAAUUUGUAUGCGAAAGUAUAUUGAUUAGUUUUGGAGUACUCGUGGUCG
Procedure, shortened: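 A randomised library covering all eight P1ex-region intron nucleotides was built with the intron in the knt kanamycin-resistance gene on pET-22b(+) and held in E. coli BL21(DE3). Cells were grown overnight at 37°C or 30°C on LB agar, with or without 25 μg/mL kanamycin, plus 100 μg/mL carbenicillin, 50 μM IPTG and 0.2% rhamnose, and pooled colonies were amplicon-sequenced on an Illumina HiSeq 2500. DiMSum fitness is the error-weighted combination of wild-type-normalised replicate fold changes, kanamycin versus none.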

| Sequence | self-splicing fitness (ln) (30 °C) | self-splicing fitness (ln) (37 °C) |
| --- | --- | --- |
| ACCCAGCAAUAUUACGCUUA | -0.429 ± 0.07 | -0.188 ± 0.078 |
| UAGCAGCAAUAUUACGGCGG | -0.483 ± 0.084 | -0.353 ± 0.13 |
| GUCUAGCAAUAUUACGUCCG | -2.96 ± 0.28 | -0.525 ± 0.19 |
| GCUGAGCAAUAUUACGACCA | -3.18 ± 0.41 | -1.57 ± 0.39 |
| GACUAGCAAUAUUACGAUGC | -0.221 ± 0.062 | 0.0502 ± 0.082 |
| UGUUAGCAAUAUUACGAGGA | – | -1.92 ± 0.21 |
| GGCUAGCAAUAUUACGCAGG | -3.5 ± 0.28 | -1.81 ± 0.19 |
| GUAAAGCAAUAUUACGGAUC | -0.198 ± 0.12 | 0.205 ± 0.15 |
| GACAAGCAAUAUUACGGCUC | -0.105 ± 0.07 | 0.0794 ± 0.1 |
| GGUCAGCAAUAUUACGUUCU | -0.13 ± 0.1 | 0.22 ± 0.11 |
| AGACAGCAAUAUUACGUGAG | -1.67 ± 0.056 | -0.569 ± 0.087 |
| UUCGAGCAAUAUUACGUCAA | -1.54 ± 0.2 | -2.38 ± 0.37 |
| UUCAAGCAAUAUUACGGACG | -1.48 ± 0.15 | -0.868 ± 0.18 |
| CCGGAGCAAUAUUACGUCAA | -4.11 ± 0.32 | -3.39 ± 0.26 |
| GACAAGCAAUAUUACGGGCG | -1.27 ± 0.061 | -0.455 ± 0.072 |
| GUUCAGCAAUAUUACGUCCA | -0.981 ± 0.17 | -1.05 ± 0.21 |
| CCGGAGCAAUAUUACGGGAC | -3.11 ± 0.31 | -2.5 ± 0.3 |
| GUACAGCAAUAUUACGUGUC | -3.39 ± 0.2 | -2.06 ± 0.2 |
| CGUUAGCAAUAUUACGAUUA | -2.16 ± 0.26 | -1.14 ± 0.22 |
| UGAAAGCAAUAUUACGUUGG | -2.36 ± 0.091 | -1.66 ± 0.11 |
| AUGAAGCAAUAUUACGGCAA | 0.00287 ± 0.12 | 0.0978 ± 0.14 |
| GUUGAGCAAUAUUACGUAGG | -3.49 ± 0.22 | -2.93 ± 0.37 |
| GUAAAGCAAUAUUACGACCC | -1.28 ± 0.32 | -0.886 ± 0.41 |
| AUCAAGCAAUAUUACGGGCC | -2.78 ± 0.2 | -0.86 ± 0.29 |
| CCUAAGCAAUAUUACGUUAA | -3.22 ± 0.4 | -2.49 ± 0.22 |

| Sequence | self-splicing fitness (ln) (30 °C) | self-splicing fitness (ln) (37 °C) |
| --- | --- | --- |
| GUCCAGCAAUAUUACGUGCG | -1.15 ± 0.085 | -1.14 ± 0.12 |
| CUUAAGCAAUAUUACGGAUC | -1.71 ± 0.23 | -2.11 ± 0.44 |
| CCAUAGCAAUAUUACGCGUA | -3.19 ± 0.4 | -2.75 ± 0.41 |
| ACGAAGCAAUAUUACGUACG | -3.8 ± 0.33 | -0.988 ± 0.15 |
| UCCGAGCAAUAUUACGCCGU | -2.21 ± 0.22 | – |
| CCUGAGCAAUAUUACGCGUC | -2.89 ± 0.27 | -3.02 ± 0.4 |
| GCGGAGCAAUAUUACGCGGG | -3.35 ± 0.38 | -1.2 ± 0.24 |
| AUAGAGCAAUAUUACGCCGC | – | -2.75 ± 0.44 |
| GUUGAGCAAUAUUACGAUAU | -2.32 ± 0.13 | -1.31 ± 0.12 |
| GGCUAGCAAUAUUACGGAAA | -2.79 ± 0.41 | -1.92 ± 0.29 |
| ACCCAGCAAUAUUACGCUGU | -1.86 ± 0.075 | -0.908 ± 0.098 |
| UAACAGCAAUAUUACGGUCC | -2.94 ± 0.15 | -1.99 ± 0.19 |
| AGCGAGCAAUAUUACGUGCC | -3.37 ± 0.41 | -0.439 ± 0.22 |
| AAGCAGCAAUAUUACGAUUC | -1.73 ± 0.081 | -0.707 ± 0.092 |
| AAAGAGCAAUAUUACGUUGC | -3.79 ± 0.39 | -1.93 ± 0.23 |
| GACUAGCAAUAUUACGGAGG | – | -1.68 ± 0.4 |
| CUUCAGCAAUAUUACGAGAA | – | -0.0336 ± 0.41 |
| UUAGAGCAAUAUUACGCGCA | -0.808 ± 0.12 | -0.112 ± 0.16 |
| CCGUAGCAAUAUUACGGAUU | – | -3.01 ± 0.29 |
| AACUAGCAAUAUUACGAUGA | -0.741 ± 0.079 | -0.0286 ± 0.08 |
| CAAGAGCAAUAUUACGAUAC | -2.8 ± 0.34 | – |
| ACAUAGCAAUAUUACGAGAG | -3.57 ± 0.28 | -2.55 ± 0.18 |
| UGUUAGCAAUAUUACGUUCU | -1.29 ± 0.14 | -0.157 ± 0.16 |
| CUGCAGCAAUAUUACGUAGA | -3.08 ± 0.15 | -3.35 ± 0.3 |
| UCGAAGCAAUAUUACGCUGG | -1.85 ± 0.13 | -2.04 ± 0.16 |
